Measurements published in the nanobody polyreactivity screen of Harvey et al. (2022).

Assay: yeast display, Sf9 membrane polyspecificity reagent, FACS + sequencing; frameworks hold sequencing errors
In short: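 Nanobodies from a synthetic yeast display library (Saccharomyces cerevisiae BJ5465), induced 36–48 hours with galactose, were stained 1 hour at 4 °C with 10% biotinylated, detergent-solubilized Sf9 membrane reagent, enriched on streptavidin microbeads, then FACS-sorted. Anti-HA (expression) and streptavidin (reagent binding) fluorescence set low and high (top ~1%) gates. Polyreactivity labels come from the gate of origin. Genes were colony-PCR amplified, MiSeq 2 × 250 sequenced and filtered by CDR length.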

| Sequence | polyreactivity (PSR sort gate) |
| --- | --- |
| QVQLVESGGGLVQAGGSLRLSCAASGRTLARNAMGWYRQAPGKERELVASINGRTTRTYYADSVKGRFTISRDNAKNTVYLQMNSLKPEDPAVYYCAARATNVYSKMDYWGQGTQVTVSS | high polyreactivity |
| QVQLVESGGGLVQAGGRLRLSCADSGRIFVKNTMGWYRQAPGKERELVAAISWSGGSTYYADSVKGRFTISRDNAKNTVYLQMNSLKPEDTAVYYCNARKRTKLSYPKFDYWGQGTQVTVSS | high polyreactivity |
| QVQLVESGGGLVQAGGSLRLSCAASGLIYWYAMGWYRQAPGKERELVAAISSNGGSTYYADSVKGRFTISRDNAKNTVYLQMNSLKPEDTAVYYCAAEDYYIYREPYDYWGQGTQVTVSS | low polyreactivity |
| QVQLVESGGGLVQAGGSLRLSCAASGRIFRYYAMGWYRQAPGKERELVATITSSGGSTFYADSVKGRFTISRDNAKNTVYLQMNSLKPEDTAVYYCAASRASRYFPYDYWGQGTQVTVSS | high polyreactivity |
| QVQLVESGGGLVQAGGSLRISCAASGSIFRRNAMGWYRQAPGKERELVATITSDGSTDYADSVKGRFTISRDNAKYTVYLQMNRLKPEDTVYYCAAGRTPYWHATFGYWGQGTQVTVSS | low polyreactivity |
| QVQLVESGGGLVQAGGSLRLSCAASGFTFKYYVMGWYRQAPGKERELVASISKRGGSTRYADSVKGRFTISRDNAKNTVYLQMNSLKPEDTAVYYCAARSKVHRWRKRYDYWGQGTQVSVSS | high polyreactivity |
| QVQLVESGGGLVQAGGSLRLSCAASGSIFRYNAMGWYRQAPGKERELVAAISSGGSTKYADSVKGRFTISRDNAKKTVYLQMNSLKPEDTAVYYCVARRARYDYWGQGTQVTVSS | high polyreactivity |
| QVQLVESGGGLVQAGGSLRLSCAASGNIFRRYAMGWYREAPGKERELVAAISRGGTRTYYADSVKGRFTISRDNAKNTVYLQMNSLKPEDTAVYYCNAEVNTNYRIADYDYWGQGTQVTVSS | high polyreactivity |
| QVQLVESGGGLVQAGGSLRLSCAASGRIFSRYAMGWYRQAPGKERELVAAITQSGTSTYYADSVKGRFTISRDNAKNTVYLQMNSLKPEDTAVYYCAAAKHSWRPSYYWGGYWGQGTQVTVSS | low polyreactivity |
| QVQLVESGGGLVQAGGSLRLSCAASGRTFWDYAMGWYRQAPGKEREFVAAINTSGGRTYYADSVKGRFTISRDNAKNTVYLQMNSLKPEDTAVYYCAARTRDRAYDSWGQGTQVTVSS | high polyreactivity |
| QVQLVESGGGLVQAGGSLRLSCAASGSIFRGNAMGWYRQAPGKERELVARITWSGGRTYYADSVKGRFTISRDNAKNTVYLQLNSLKPEDTAVYYCAAQYYLYRRGYMWKYDYWGQGTQVTVSS | high polyreactivity |
| QVQLVESGGGLVQAGGSLRLSCAASGFTFGYYGMGWYRQAPGKERELVAAISWSGGSTYYADSVKGRFTISRDNAKNTVYLQMNSLKPEDTAVDYCNADYAGFYQRRYIEDDYWGQGTQVTVSS | low polyreactivity |
| QVQLVESGGGLVQAGGSLRLSCAASGSILPLYAMGWYRQAPGKERELVATISNAGSTTYADSVKGRFTISRDNAKNTVYLQMNSLKPEDTAVYYCNAESEWGWVYVGYDYWGQGTQVTVSS | low polyreactivity |
| QVQLVESGGGLVQAGGSLRLSCAASGGTFRYYALGWYRQAPGKERALVAAISSGGSTNYADSVKGRFTISRDNAKNTVYLQMNSLKPEDTAVYYCAADVIYYYAYYTYDYWGQGTQVTVSS | low polyreactivity |
| QDQLVESGGGLVQAGGSLRLSCAASGFILNWYAMGVYRQAPGKERELVAAISWTTSDTYYADSVKGRFTISRDYAKNTVYLQMNSLKPEDTAVYYCNAKFYAYYVTFVLHYDYWGHGTQVTVSS | low polyreactivity |
| QVQLVESGGGLVQAGGSLRLICAASGFIIRYYAMGWYRQAPGKERELVAVISASGGSTYYADSVKGRFTISRDNAKNTVYLQMNSLKPEDTAVYYCNTKRYFFHRGDMDYWGQGTQVTVSS | high polyreactivity |
| QVQLVESGGGLVQAGGSLRLSCAASGSTFKRNTMGWYRQAPGKERELVAAISRSGGYTYYADSVKGRFTISRDNAKNTVYLQMNSLNPEDTAVYYCNANVSSYVGSRSYGLSPYDYWGQGTQVTVSS | high polyreactivity |
| QVQLVESGGGLVQAGGSLRLSCAASGSTLVYNDMGWYRQAPGKERELVAAISSGASTYADSVKGRFTISRDNAKNTVYLQMNSLKPEDTAVYYCAKDIKLGPVGHSKYHRYDYWGQGTQVTVSS | low polyreactivity |
| QVQLVESGGGLVQAGGSLRLSCAASGFTFIWYAMGWYRQAPGKETELVATISWNGGRTYYADSVKGRFTISRDNANNTVYLQMNSLKPEDTAVYYCAADQGVYRTYWFDYWGQGTQVAVSS | high polyreactivity |
| QVQMQESGGGLVQAGGSLRLICAASGTILYSLGMGWYRQATGKRREFVASITWGTTTNYAERVKGRFTISSDNAKNTVYPKIISLKPEVTAVYYCASPPFGDSSFHYWGQGTQVTVSS | low polyreactivity |
| QVQLVESGGGLVQAGGSLRLSCAASGRIFGYNAMGWYRQAPGKERELVATISSGGGTNYADSVKGRFTISRDNAKNTVYLQMNSLKPEDTAVYYCNARIVYYYKRYTRDYEYWGQGTQVTVSS | low polyreactivity |
| QVQLVESGGGLVQAGGSLRLTCAASGSTFWDNAMGWYRQAPGKERELVAAITAIGGTTYYADSVKGRFTISRDNAKNTVYLQMKSLKPEDTAVYYCAAVWSRFLISYSTGWWFEYWGQGTQVTVSS | low polyreactivity |

| Sequence | polyreactivity (PSR sort gate) |
| --- | --- |
| QVKLVESGGGLVQAGGSLRLSCAASGSSFTNYAMGWYRQEPRKERELVAAITSVGSTYYADSVKGRFTISRDNAKNTVYLQMNSLKPEDTAVYYCNVVYRDQYNYWGQGTQVTVSS | low polyreactivity |
| QVQLVESGAGLVQAGGSLSLSCAASGSIWLYAMGWYRQAPGKEREFVAAITRRGSSTYYADSVKGRFTISRDNAKNPVLLQMNSLKPEDTAVYYCAGVSQYGKWRGDYWGQGTQVTVSS | high polyreactivity |
| QVQLVESGGGLVQAGGSLRLSCAASVYTFYWNAMGWYRQAPGKEREFVASFSGTSTYYADSVKGRFTISRDNAKNTVYLQMNSLKPEDTAVYYCNARLTLGPRKYEYWGQGTQVTVSS | low polyreactivity |
| QVQLVESGGGLVQAGGSLRLSRAASGITFGFNAMGWYRQAPGKERELVAAITWSVGRTYYADSVKGRFTISRDNAKNTVYLQMNSLKPEDTAVYYCAKVFEAGDDYFAYDYWGQGTQVTVSS | low polyreactivity |
| QVQLVESVGGLVQAGGSLRLSCAASGLILANYAMGWYRQAPGKERELVAAISSSGGSTYYADSVKGRFTISRDNAKNTVYLQMNSLKPEDTAVYYCAKAYRGGSAGKSYYYWGQGTQVTVSS | high polyreactivity |
| QVQLVESGGGLVQAGGSLRLSCAASGSIFSQYAMGWYRQAPGKERELVAAITYGGGSTYYADSVKGRFTISRDNAKNTVYLQMNSLKPEDTAVYYCAAGYWNDFDWGQGTQVTVSS | low polyreactivity |
| QVQLVESGGGLVQAGGSLRLSCAASGSIFPRYVMAWYRQAPGKERELVAAISGSGGSTYYADSVKGRFTISRDNAKNTVYFQMNSLIPEDTAVYYCNKLRRRVNRDIDDYWGQGTQVTVSS | high polyreactivity |
| QVHLVESGGGLVQAGGSLRLSCAASGLIFGRNAMGWYRQAPGKERELVAAISTRGGSTYYADSVKGRFTISRDNAKNTVYLQMNSLKPEDTAVYYCAARGSYGYDYWGQGPQVTVSS | high polyreactivity |
| QVQLVESGGGLVQAGGSLSLSCAASGRTFKPYAMGWYRQAPGKERELVAVITSNGSSTYYADSVKGRFTISRDNAKNTVYLQMNSLKPEDTAVYYCATKLTYTLTSGAYAYDYWGQGTQVTVSS | low polyreactivity |
| QVQLVESGGGLVQAGGSLRLSCAASGRIFAYNTMGWYRQAPGKERELVAVITSGGSTNYADSVKGRFTISRDNAKNTVYLQMNSLKPEDTAVDYCNAPYVARKRFSYNYWGQGTQVTVSS | high polyreactivity |
| QVQLVESGGGLVQAGGSLRLSCAASGFTLFYNAMGWYRQAPGKERELVAAITARGGGTYYADSVKGRFTISRDNAKNPVYLQMNSLKPEDTAVYYCAADSFIPPYDHWGQGTQVTVSS | low polyreactivity |
| QVQLVESGGGLVQAGGSLRLSCAPSGSIFDVNAMGWYRQSPGKESELVAAISDSGGSTYYADSVKGRFTISRDNAKNTVYLQMNSLKPEDTAVYYCNADWSWYNYYEFDYWGQGTQVTVSS | low polyreactivity |
| QVQLVESGGGLVQAGGSLRLSCGASGSIIGSYALGWYRQAPGPERELVAAISSSGGRTYYAVSVKGRFTISRDKAKNTVYLQMNRLKPAETAVYYCNTRPGTVFRAGGDDWGQGTQVTVSS | high polyreactivity |
| QVQLVESGGGLVQAGGSLRLSCAASGITSRPYVMGGYRQAPGKERELVAAISLTGGRTYYADSVKGRFTISRDNAKNTVYLQMNSLKPEDTAVYYCAAKYSNGSGFDYWGQGTQVTVSS | high polyreactivity |
| QVQLVESGGGLVQAGGSLRLSCAASGRIFSDYAMGWYRQAPGKERELVATITSGDSTNYADSVKGRFTISRDNAKNTVYLQMNSLKTEDTAVYYCNADRFADYDYWGQGTQVTVSS | low polyreactivity |
| QVQLVESGGGLVQAGGSLRLICAASGRTFKYYAMGWYRQAPGKERELVATITWSGTSTNYADSVKRRFTISRDIGKNSVYLQMNSLKPEDSAVYYCAARSKRRNYDYWGQGTQVTVSS | high polyreactivity |
| QVQLVESGGGLVQAGGSLRLSCAASGRTFYRYVMAWYRQAPRKERELVADITRSGGSTYYADSVKGRFTISRDNAKNTVYLQMNSLKPEDTAVYYCNKRYRVWFDYWGQGTQVTVSS | high polyreactivity |
| QVQLVETGGRLVQAGGSLRLSSAASGSIFYPYAMGWYRQAPGKEREWVATITISGGRTYYADSVKGRFTISRDNAKNTVYLQMNSLKPEDTAFYYCATEYAYGAFLYDYWGQGTQVTVSW | low polyreactivity |
| QVQHVESGGVLVQARGSLRLTCAASGSTFIRNAMGWYRQAPGKERELVAAISASGGRSYYADSVKGRFTFSRDNAKTSVYCQLNSLKSEDTAVYYFAARNARYVHTMVFWGQGTQVTVSS | high polyreactivity |
| QVQLVESGGGLVQAGGSLRLSCAASGSTFGLYAMGWYRQAPGKERELVAAITIRGGSTYYADSVKGRFTISRDNAKNTVYLQMNSLKPEDTAVYYCAADYWYGGFEYWGQGTQVTVSS | low polyreactivity |
| QVQLVESGGGLVQAGGSLRLSCAASGRIFYRYAMGWYRQAPGKERELVAGITRGGSTYYADSVKGRFTISRDNAKNTVYFQMNSLKPEDTAVYYCNVRWSPAGTGLLDYWGQGTQVTVSS | high polyreactivity |
